From patent US20090068195A1 (Pfizer, published 2009)

T1: FLAG-tagged NHP IL-13 (cynomolgus monkey, UniProt Q5I6E4 21-132 (Macaca thibetana entry), limits assumed)
T1 chain: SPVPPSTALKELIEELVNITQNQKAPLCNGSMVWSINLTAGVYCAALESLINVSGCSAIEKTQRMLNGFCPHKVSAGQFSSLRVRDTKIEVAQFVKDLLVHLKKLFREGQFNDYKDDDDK

B1: humanized 13.2v.2 (antibody, V domains shown)
VH: EVQLVESGGGLVQPGGSLRLSCAASGFTFISYAMSWVRQAPGKGLEWVASISSGGNTYYPDSVKGRFTISRDNAKNSLYLQMNSLRAEDTAVYYCARLDGYYFGFAYWGQGTLVTVSS
VL: DIQMTQSPSSLSASVGDRVTITCKASESVDNYGKSLMHWYQQKPGKAPKLLIYRASNLESGVPSRFSGSGSGTDFTLTISSLQPEDFATYYCQQSNEDPWTFGGGTKVEIK
notes: Humanized form of mAb13.2; also called h13.2v2; h13.2v.2
B2: humanized MJ2-7 v.2-11 (antibody, human IgG1, kappa, V domains shown)
VH: EVQLVESGGGLVQPGGSLRLSCAASGFNIKDTYIHWVRQAPGKGLEWIGRIDPANDNIKYDPKFQGRFTISADNAKNSAYLQMNSLRAEDTAVYYCARSEENWYDFFDYWGQGTLVTVSS
VL: DIQMTQSPSSLSASVGDRVTITCRSSQSIVHSNGNTYLEWYQQKPGKAPKLLIYKVSNRFSGVPSRFSGSGSGTDFTLTISSLQPEDFATYYCFQGSHIPYTFGGGTKVEIKR
B3: non-human primate (cynomolgus monkey) IL-13 (ligand)
chain: SPVPPSTALKELIEELVNITQNQKAPLCNGSMVWSINLTAGVYCAALESLINVSGCSAIEKTQRMLNGFCPHKVSAGQFSSLRVRDTKIEVAQFVKDLLVHLKKLFREGQFN
notes: the construct used in the assays is not described; Also used here for endogenous IL-13 of cynomolgus monkeys in the PK-PD fits; also called NHP IL-13; NHP-IL-13
B4: sIL-13Rα2-Fc (soluble human IL-13 receptor alpha 2 Fc fusion) (Fc fusion, UniProt Q14627 27-343, looked up, not shown: a dimerising Fc or GST)
chain: DTEIKVNPPQDFEIVDPGYLGYLYLQWQPPLSLDHFKECTVEYELKYRNIGSETWKTIITKNLHYKDGFDLNKGIEAKIHTLLPWQCTNGSEVQSSWAETTYWISPQGIPETKVQDMDCVYYNWQYLLCSWKPGIGVLLDTNYNLFYWYEGLDHALQCVDYIKADGQNIGCRFPYLEASDYKDFYICVNGSSENKPIRSSYFTFQLQNIVKPLPPVYLTFTRESSCEIKLKWSIPLGPIPARCFDYEIEIREDDTTLVTATVENETYTLKTTNETRQLCFVVRSKVNIYCSDDGIWSEWSDKQCWEGEDLSKKTLLR
B5: mouse monoclonal antibody MJ 2-7 (antibody, mouse IgG1, V domains shown)
VH: EVQLQQSGAELVKPGASVKLSCTGSGFNIKDTYIHWVKQRPEQGLEWIGRIDPANDNIKYDPKFQGKATITADTSSNTAYLQLNSLTSEDTAVYYCARSEENWYDFFDYWGQGTTLTVSS
VL: DVLMTQTPLSLPVSLGDQASISCRSSQSIVHSNGNTYLEWYLQKPGQSPKLLIYKVSNRFSGVPDRFSGSGSGTDFTLKISRVEAEDLGVYYCFQGSHIPYTFGGGTKLEIK
notes: also called mAb7.1.1; murine MJ2-7
B6: mouse monoclonal antibody C65 (antibody, V domains shown)
VH: QVQLKESGPGLVAPSQSLSITCTVSGFSLTGYGVNWVRQPPGKGLEWLGIIWGDGSTDYNSALKSRLIINKDNSKSQVFLKMNSLQTDDTARYFCARDKTFYYDGFYRGRMDYWGQGTSVTVSS
VL: DVQMIQSPSSLSASLGDIVTMTCQASQGTSINLNWFQQKPGKAPKLLIFGASNLEDGVPSRFSGSRYGTNFTLTISSLEDEDMATYFCLQHSYLPWTFGGGTKLEIK

Assays:
[1] = molecular target: B3; test: sandwich ELISA for total IL-13 in monkey serum, non-human primate IL-13 standards
Procedure: The concentrations of total IL-13 in serum samples obtained from hMJ2-7v.2-11-treated monkeys were determined using quantitative ELISA. […] After blocking and washing, the serum samples containing IL-13 from in vivo studies or the non-human primate IL-13 standards were incubated on the plate to allow for binding to the anti-IL-13 capture antibody. […] Streptavidin conjugated to HRP and the enzyme substrate 3,3′,5,5′-tetramethylbenzidine (TMB) peroxidase were added and optical densities were measured at 450 nm. The low limit of quantitation of the assay was approximately 0.15 ng/mL.

native human IL-13 = native human IL-13 (human, UniProt P35225 34-146, limits assumed); test: cell-based or functional assay
Chain of native human IL-13 (P35225 other isoform, or with tags, fused parts or gaps limits assumed): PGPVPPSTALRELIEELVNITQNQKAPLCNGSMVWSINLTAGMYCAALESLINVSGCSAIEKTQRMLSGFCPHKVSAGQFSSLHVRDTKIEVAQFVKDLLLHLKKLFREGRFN

[2] = molecular target: B4; test: SPR (BIACORE): sIL-13Ralpha2-Fc amine-coupled to a CM5 chip, NHP IL-13 injected at 100 nM
Procedure: (§1) sIL-13RI2-Fc was directly coated onto a CM5 chip by standard amine coupling. NHP-IL-13 at 100 nM concentration was injected, and its binding to the immobilized IL-13RI2-Fc was detected by BIACORE3. An additional injection of 100 nM of anti IL-13 antibodies was added, and changes in binding were monitored.

[3] = molecular target: B3; test: cell-based or functional assay
[4] = molecular target: T2, NHP-IL-13 in a complex with immobilised hu IL-13Rα2-Fc (cynomolgus monkey; human, UniProt Q14627 27-343, limits assumed); test: SPR (BIACORE): antibody injected over NHP IL-13 held by immobilised sIL-13Ralpha2-Fc
T2 construct: Pre-formed ligand-receptor complex on a CM5 chip; not shown: Fc part
Procedure: as §1

FLAG-tagged NHP IL-13 [5] = molecular target: T1, FLAG-tagged NHP IL-13; test: competition ELISA: IL-13Ralpha1-Fc coated on the plate, FLAG-tagged NHP IL-13 added with rising MJ2-7; the blocked partner is IL-13Ralpha1-Fc
Procedure: (§2) The ability of MJ2-7 to inhibit binding of NHP IL-13 to IL-13RI1 and IL-13RI2 was tested by ELISA. Recombinant soluble forms of human IL-13RI1-Fc and IL-13RI2-Fc were coated onto ELISA plates. FLAG-tagged NHP IL-13 was added in the presence of increasing concentrations of MJ2-7. […] This provides a basis for the neutralization of IL-13 bioactivity by MJ2-7.

FLAG-tagged NHP IL-13 [6] = molecular target: T1, FLAG-tagged NHP IL-13; test: competition ELISA: IL-13Ralpha2-Fc coated on the plate, FLAG-tagged NHP IL-13 added with rising MJ2-7; the blocked partner is IL-13Ralpha2-Fc
Procedure: as §2

Binder: B1
binding result [1]: binds

Binder: B2
STAT6 phosphorylation in HT-29 cells, IC50 (native human IL-13): 0.52 nM

Binder: B3
binding result [2]: binds

Binder: B4
STAT6 phosphorylation in HT-29 cells, IC50 (native human IL-13): 0.33 nM

Binder: B5
CD23 expression, IC50 [3]: ~0.242 nM | STAT6 phosphorylation in HT-29 cells, IC50 (native human IL-13): 0.48 nM | STAT6 phosphorylation, IC50 (native human IL-13): ~0.293 nM | tenascin C production by BEAS-2B cells, IC50 (native human IL-13): ~0.1 nM | binding result [4]: no binding | IC50 (read off the curve) (FLAG-tagged NHP IL-13 [5]): ~0.4 nM | IC50 (read off the curve) (FLAG-tagged NHP IL-13 [6]): ~0.08 nM

Binder: B6
fold decrease in monocyte CD23 expression, potency against MJ2-7 [3]: ~20 fold | fold decrease in STAT6 phosphorylation in HT-29 cells, potency against MJ2-7 (native human IL-13): ~20 fold
